Experimental data published in patent US20260274955A1 (JANUX THERAPEUTICS, published 2026).

Legend:
[1] = molecular target: T1, anti-CD28 Fab (SEQ ID NOs: 202, 203); test: phage ELISA on captured Fab;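 further: ELISA with clonal phage supernatants added to wells preincubated with CD28 antigen or with blocking buffer only, bound phage detected by HRP-conjugated anti-M13 antibody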
T1 construct: biotinylated and captured on neutravidin coated plates in the phage ELISA
Experimental: (§1) Clonal phage were harvested as crude supernatants and screened via standard ELISAs. […] Prior to the addition of clonal phage, wells were incubated with blocking buffer and CD28 antigen or blocking buffer alone. Without washing or aspirating, clonal phage supernatants were then added to the wells and incubated for a short time. Wells were then washed followed by detection of bound phage using a horse radish conjugated anti-M13 antibody.

[2] = molecular target: T1, anti-CD28 Fab (SEQ ID NOs: 202, 203); test: phage ELISA on captured Fab, wells pre-incubated with CD28 antigen (competitor);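 further: clonal phage ELISA with wells pretreated with CD28 plus blocking buffer before phage addition, bound phage detected by HRP-linked anti-M13 antibody, reference wells got blocking buffer only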
Experimental: as §1

T1 sequence (VH, as listed by the source, chain 1 of 2): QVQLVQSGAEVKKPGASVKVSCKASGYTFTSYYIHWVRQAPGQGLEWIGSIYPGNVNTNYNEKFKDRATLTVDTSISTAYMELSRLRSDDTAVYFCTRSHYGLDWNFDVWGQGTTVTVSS
T1 sequence (VL, as listed by the source, chain 2 of 2): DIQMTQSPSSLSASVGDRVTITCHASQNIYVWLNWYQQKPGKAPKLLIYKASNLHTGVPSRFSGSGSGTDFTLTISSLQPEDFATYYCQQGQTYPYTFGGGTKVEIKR

| Binder | Anti-CD28 Fab (SEQ ID NOs: 202, 203) signal [1] | Anti-CD28 Fab signal in the presence of CD28 [2] |
| --- | --- | --- |
| YCEGHLSQYMSKCL (on phage, pIII fusion) [Phage-466] | 1.66 | 0.07 |
| YCDGHAQEYRLKCL (on phage, pIII fusion) [Phage-477] | 1.65 | 0.07 |
| YCDGHSAEYLLKCL (on phage, pIII fusion) [Phage-478] | 1.65 | 0.07 |
| YCDGHSAEYLSKCL (on phage, pIII fusion) [Phage-561] | 1.51 | 0.07 |
| YCEGHLPQYMRPCL (on phage, pIII fusion) [Phage-465] | 1.66 | 0.08 |
| YCDGHDVEYMAKCL (on phage, pIII fusion) [Phage-470] | 1.66 | 0.07 |
| YCDGHDVEYMSKCL (on phage, pIII fusion) [Phage-486] | 1.64 | 0.05 |
| YCDGHRVEYMAKCL (on phage, pIII fusion) [Phage-522] | 1.58 | 0.09 |
| YCEGHLPMYMIKCL (on phage, pIII fusion) [Phage-464] | 1.66 | 0.09 |
| YCEGHSLMYMWKCL (on phage, pIII fusion) [Phage-474] | 1.65 | 0.08 |
| YCEGHSLMYMAKCL (on phage, pIII fusion) [Phage-563] | 1.5 | 0.06 |
| YCDGHIGLYLNKCL (on phage, pIII fusion) [Phage-463] | 1.66 | 0.06 |
| YCEGHLAVYMEKCL (on phage, pIII fusion) [Phage-473] | 1.65 | 0.12 |
| YCDGHSADYMAKCL (on phage, pIII fusion) [Phage-462] | 1.67 | 0.07 |
| YCAGHAAEYMTKCL (on phage, pIII fusion) [Phage-475] | 1.65 | 0.07 |
| YCAGHLPEFMDKCL (on phage, pIII fusion) [Phage-468] | 1.66 | 0.06 |
| YCEGHAQEYMNKCL (on phage, pIII fusion) [Phage-460] | 1.67 | 0.06 |
| YCDGHGPQYIQKCL (on phage, pIII fusion) [Phage-479] | 1.64 | 0.07 |
| YCDGHSPEYIGKCL (on phage, pIII fusion) [Phage-467] | 1.66 | 0.07 |
| YCDGHSLEYIGKCL (on phage, pIII fusion) [Phage-494] | 1.63 | 0.06 |
| YCDGHSLLYLSKCL (on phage, pIII fusion) [Phage-472] | 1.65 | 0.07 |
